Test in all cases: EMSA
One series addresses T1, HYL1 (Arabidopsis thaliana, UniProt O04492 1-419).
T1 sequence: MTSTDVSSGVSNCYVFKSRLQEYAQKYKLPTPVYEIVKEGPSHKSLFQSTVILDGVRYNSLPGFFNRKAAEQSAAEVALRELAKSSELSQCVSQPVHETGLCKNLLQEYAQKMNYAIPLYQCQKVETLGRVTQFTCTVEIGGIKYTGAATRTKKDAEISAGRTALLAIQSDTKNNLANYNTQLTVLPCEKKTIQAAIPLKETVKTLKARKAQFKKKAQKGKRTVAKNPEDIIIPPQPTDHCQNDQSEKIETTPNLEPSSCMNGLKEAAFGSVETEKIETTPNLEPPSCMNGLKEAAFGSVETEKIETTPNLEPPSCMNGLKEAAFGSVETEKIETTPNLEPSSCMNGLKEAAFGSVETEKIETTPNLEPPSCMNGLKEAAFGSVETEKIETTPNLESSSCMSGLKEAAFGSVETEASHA

The target in another series is T2, HEN1-RHK389,397,477AAA (Arabidopsis thaliana, UniProt Q9C5Q8 1-942, R389A;H397A;K477A).
T2 sequence: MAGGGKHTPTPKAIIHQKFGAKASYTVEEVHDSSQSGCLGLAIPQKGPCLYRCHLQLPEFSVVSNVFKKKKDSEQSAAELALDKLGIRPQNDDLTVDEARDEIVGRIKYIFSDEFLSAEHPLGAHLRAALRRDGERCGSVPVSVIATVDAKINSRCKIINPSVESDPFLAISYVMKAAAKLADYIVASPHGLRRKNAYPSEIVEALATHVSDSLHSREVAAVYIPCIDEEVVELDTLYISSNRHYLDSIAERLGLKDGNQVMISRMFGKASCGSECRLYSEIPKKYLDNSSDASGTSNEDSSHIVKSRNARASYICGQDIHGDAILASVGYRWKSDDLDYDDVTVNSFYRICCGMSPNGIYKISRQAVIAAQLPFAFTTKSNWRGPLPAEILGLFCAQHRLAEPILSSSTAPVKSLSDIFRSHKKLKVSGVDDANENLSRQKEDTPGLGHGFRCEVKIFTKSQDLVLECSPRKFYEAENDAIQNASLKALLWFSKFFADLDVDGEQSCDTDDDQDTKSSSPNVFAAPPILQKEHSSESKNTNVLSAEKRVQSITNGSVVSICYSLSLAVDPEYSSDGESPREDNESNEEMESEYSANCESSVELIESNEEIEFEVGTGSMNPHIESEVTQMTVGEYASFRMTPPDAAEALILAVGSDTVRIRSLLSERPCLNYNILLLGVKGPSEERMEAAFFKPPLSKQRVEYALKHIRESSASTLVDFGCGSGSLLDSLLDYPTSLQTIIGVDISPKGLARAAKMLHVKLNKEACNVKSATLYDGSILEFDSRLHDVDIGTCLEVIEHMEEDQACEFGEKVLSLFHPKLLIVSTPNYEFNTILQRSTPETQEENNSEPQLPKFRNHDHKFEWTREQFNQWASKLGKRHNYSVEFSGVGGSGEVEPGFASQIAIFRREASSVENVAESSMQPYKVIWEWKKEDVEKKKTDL

The target in a further series is T3, HEN1-KKKK68-71SAAS (Arabidopsis thaliana, UniProt Q9C5Q8 1-942, K68S;K69A;K70A;K71S).
T3 sequence: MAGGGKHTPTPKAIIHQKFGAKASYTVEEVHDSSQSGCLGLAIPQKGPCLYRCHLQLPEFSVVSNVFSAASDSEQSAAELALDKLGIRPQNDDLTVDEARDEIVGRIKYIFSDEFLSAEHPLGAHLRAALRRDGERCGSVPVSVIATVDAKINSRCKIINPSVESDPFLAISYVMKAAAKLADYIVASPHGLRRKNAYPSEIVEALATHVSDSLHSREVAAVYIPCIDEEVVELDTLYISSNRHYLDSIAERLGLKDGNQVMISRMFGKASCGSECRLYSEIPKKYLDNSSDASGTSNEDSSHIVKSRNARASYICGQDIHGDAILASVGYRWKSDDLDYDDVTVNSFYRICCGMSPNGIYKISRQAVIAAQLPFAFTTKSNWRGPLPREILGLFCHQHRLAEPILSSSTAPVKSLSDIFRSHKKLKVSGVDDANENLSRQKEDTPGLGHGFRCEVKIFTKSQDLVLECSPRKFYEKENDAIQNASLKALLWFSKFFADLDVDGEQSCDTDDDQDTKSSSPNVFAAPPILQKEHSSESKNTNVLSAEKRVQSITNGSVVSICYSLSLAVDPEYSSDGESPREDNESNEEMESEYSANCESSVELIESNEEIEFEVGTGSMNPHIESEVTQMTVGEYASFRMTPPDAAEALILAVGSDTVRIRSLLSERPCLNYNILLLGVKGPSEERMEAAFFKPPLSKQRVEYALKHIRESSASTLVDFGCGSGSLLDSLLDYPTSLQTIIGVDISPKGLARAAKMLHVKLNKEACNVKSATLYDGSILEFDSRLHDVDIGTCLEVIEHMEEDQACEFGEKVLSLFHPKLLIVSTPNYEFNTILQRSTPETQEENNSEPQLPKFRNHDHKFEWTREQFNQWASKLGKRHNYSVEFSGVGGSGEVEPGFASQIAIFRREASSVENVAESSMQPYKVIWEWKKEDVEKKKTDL

The values below come from PMC4357707 (Nucleic Acids Research, 2015).

B1: miR173/miR173* (dsRNA)
RNA 1: UUCGCUUGCAGAGAGAAAUCAC
RNA 2: GAUUCUCUGUGUAAGCGAAAG
Broadly, the Kd is the equilibrium constant for the complex coming apart. Low values mean tighter binding, high ones weaker binding. Turning to B1, the figures for the binding result in the series with HYL1 and with HEN1-KKKK68-71SAAS were “binds” and “no binding”, respectively. In the series with HEN1-RHK389,397,477AAA, this molecule had a Kd of 65 ± 12 nM.
